Reference: the DeepSol protein solubility set

Assay: soluble on expression in E. coli; label from the status in PepcDB or PDB records
With “TSMIIHRDLEVAIRQDNIIPYFQPIVNAKSGEIIGFEALARWPHPTLGIISPLIFIPLAEQGKLIVELGESILNQSCDFIGKLNTKRHSQGLPPLTVHVNLSAQHFYHSRLISFLQSMIEEHNISAGHLVLEITESMLMGGETESIHCINEIKQLGVQLALDDFGTGYASFSSVCNFPLDIVKLDKSYVDEIETNDRAKTLVRNIANMSQELGLTIVAEGVETASQVRKLKVWNIDELQGFYFYKPMTREDAFAQFSGLPHC” the “soluble on expression in E. coli” value was “not soluble”.
For “GRPVITTSIVQDQGIDELEAAIASLFFESGIESGDVTYVSNSRHIALLEQAKRAVEDALEAIEMDVPIDMVQIDITRAWELLGEIIGDSVHESLIDQLFSQFCLG”, the “soluble on expression in E. coli” value was “soluble”.
With “MAHHHHHHMKFTISTSIEDVLFKGGFRVKEMRLNDFLTVIFGGRSILRANRSVLLRDFFSDPTRYIHDAGVLNEIQATGAYARMEEAVRDEIIFEEDRSKLRDKGVINLLGWSEAAANVKTTVHNNNKNSLDAALEEARNPTTTSTPIYLEGCYESVYNAKWHHLVEVPGGEGTGMDVEEGEPPQS” the “soluble on expression in E. coli” value was “not soluble”.
In the case of “MSLYCNLLKPIKIGNLELKNRVSFAPTSMGLKLEEKIKKFSDIAKSGVALITLGDVSIRPSFHKVAISLSDEDGVMKYKKIVDEIHNSGAKVSAQLFCSDYDVNLIKDTMKMGITSHDEIKKIMNDGVKDYITNMTKGEIKNIINLFKVTALNAKKAGFDMIQIHGDRLVGSFSSSIFNNRNDEYGGTCDNRSRFASEIISSIRDEVKDIPIDYKFAIRQENPHYGNAGVLLSEVEYFVKKFESLGVNSFHVTLANHSKLEDTIPTNNHPYFKDEGCFLYLADEVKKHTNLPVCGVGKLSSPDFIESIISNNRVDMVSMSRQLLADSNWLQKVKDGRVDEIKKCCYCNKKCADALQTRSQFGCILDEGHHHHHH”, the “soluble on expression in E. coli” value is reported as “soluble”.
For “MYTNRWEGLDEFVAVAECGQFTAAALRLGVSSSHVSRQIVRLEERLQTRLLYRSTRKVALTEAGQTFLHHCQRLQDGREEALRAVGDLASEPKGLLRMTCAVAYGERFITPLVTRFMELYPQLRVDIELSNDTLDLVHEGMDLAIRLGRLQDSRMVATRLAPRQMYLCASPSYLERYGRPHSLSELSRHNCLIGGSDTWQLQQNGREFSQRVQGNWRCNSGQAVLDAALQGVGLCQLPDYYVQKHLKEGALVSLLEAHQPPNTAVWALYPQQRHLSPKVRKLVDYLKEGLAMQDEYRQ”, the “soluble on expression in E. coli” value was “not soluble”.
For “GSSGSSGMGNSKSGALSKEILEELQLNTKFSEEELCSWYQSFLKDCPTGRITQQQFQSIYAKFFPDTDPKAYAQHVFRSFDSNLDGTLDFKEYVIALHMTTAGKTNQKLEWAFSLYDVDGNGTISKNEVLEIVMAIFKMITPEDVKLLPDDENTPEKRAEKIWKYFGKNDDDKLTEKEFIEGTLANKEILRLIQFEPQKVKEKMKNA”, the “soluble on expression in E. coli” value was “soluble”.
In the case of “MGSDKIHHHHHHMHTFLASSSMQLSVPPNHFQSMKIVALGDSLIYGFGDPEKGGWIEQLRRWWMLPDSAGHVLYNLGVRGDRTQQVAQRLEVEFRHRGELRNRVPDLIILSVGVNDSARLARPDGRSYTDFTLFEKEIATLLDLAQQLCPVLFVGMVPVDEAKMPFLDCFYYNHVDQYRYKEATRLACTKRQIPYLDIFEKWMERGENWRLKRLSEDGLHPNTLGYQALLEDVINWDAIHSVGFANAAYHSQFNYHLKQS”, the “soluble on expression in E. coli” value is reported as “not soluble”.
For “MSLRIAVDAMGGDHAPKAVIDGVIKGIEAFDDLHITLVGDKTTIESHLTTTSDRITVLHADEVIEPTDEPVRAVRRKKNSSMVLMAQEVAENRADACISAGNTGALMTAGLFIVGRIKGIDRPALAPTLPTVSGDGFLLLDVGANVDAKPEHLVQYAIMGSVYSQQVRGVTSPRVGLLNVGTEDKKGNELTKQTFQILKETANINFIGNVEARDLLDDVADVVVTDGFTGNVTLKTLEGSALSIFKMMRDVMTSTLTSKLAAAVLKPKLKEMKMKMEYSNYGGASLFGLKAPVIKAHGSSDSNAVFRAIRQAREMVSQNVAALIQEEVKEEKTDEEGGSHHHHHH”, the “soluble on expression in E. coli” value was “soluble”.
In the case of “MYTFKKGDADYQVMLNENFKEITDSFEDGLFVRKNSKILDLNDAILPGIYSIPATGVDNKPLPNSGSLFVCKDPGGVRQLFQTERTIFIRQLGGVPSSWTDWKKVAFEKEQPFEAWYSPGTNHAGFKNKARYNLGPEFSNIGQRLGLPMKSEPLEWNSGRWQAKVLRDCKLNISGTVKYHVGSSRGVLYAYTHIDKGLDEGVGDLGIGSAVGAVGGLDYKNVAAFDLNVTLKKGEYLAFRLELAADKQLDYTQLSSMHITELV”, the “soluble on expression in E. coli” value is reported as “not soluble”.
With “MGHHHHHHSHMSEPGKGDDCLELESSMAESRLRAPDLGVSRCLGKCQKNSPGARKHPFSGKSFYLDLPAGKNLQFLTGAIQQLGGVIEGFLSKEVSYIVSSRREVKAESSGKSHRGCPSPSPSEVRVETSAMVDPKGSHPRPSRKPVDSVPLSRGKELLQKAIRNQVSWGKMGQSRWSPA” the “soluble on expression in E. coli” value was “not soluble”.
With “MAHHHHHHMEVREGEPPQSWTYKAVCMTLEKDDGVEQSGAPRLRLMVLTSEKGWPYSWRWKENKSTRDCHVNCEVDRVWRTVKGDLTKWFSRRAKNKLSPRRRLLVGTPWIGNSMAADSYLLYQLLHGDAEKLQVAVYSFGSQSFLFDKTTQAVREYVDTTKSKRVFFFWQL” the “soluble on expression in E. coli” value was “soluble”.
With “MNLDDIINSMTPEVYQRLSTAVELGKWPDGVALTEEQKENCLQLVMLWQARHNTEAQHMTIDTNGQMVMKSKQQLKEDFGISAKPIAMFK” the “soluble on expression in E. coli” value was “not soluble”.
For “KELKDSYVEYTLLYDMIANRIGIDEVVAENGTLRLMKNQVWAYDSLPHMLIAGGTGGGKTYFLLTIIEALLKSDAELFILDPKNADLADLGTVMPHVYSQKEEISACVEDFYERMIARSKAMKEMPNYKPGENYAYLGLPPNFLIFDEYVAYMGANRFPTS”, the “soluble on expression in E. coli” value was “not soluble”.
For “MNMPHKFNQYNKSIPVNKHVIELLENDPSLLPSDIAKQLSISEVEVVKSLPKEMVTMVSGLKTQEILEGLVGFGDVTTIVHSFGSIFEVKAPFPKGKIAHGYYNLMGREGQLHGHLKLDLIQDIALISKPFRGTESHYFGFFNHDGHSVFKIYLGRDKKRQLIPEQVEAFNVLKQEYKLEHHHHHH”, the “soluble on expression in E. coli” value was “soluble”.
With “MGILFTRIWRLFNHQEHKVIIVGLDNAGKTTILYQFSMNEVVHTSPTIGSNVEEIVINNTRFLMWDIGGQESLRSSWNTYYTNTEFVIVVVDSTDRERISVTREELYKMLAHEDLRKAGLLIFANKQDVKECMTVAEISQFLKLTSIKDHQWHIQACCALTGEGLCQGLEWMMSRLKIRLEHHHHHH” the “soluble on expression in E. coli” value was “soluble”.
With “MGSDKIHHHHHHMSDFHHGVQVVEINDGTRVISTVSTAIIGMVCTASDADAATFPLNKPALITSVQSAIAKAGTKGTLAASLQAIADQSKPVIVVVRVAEGTGDDAEAQTISNIIGGTDESGNYTGLKALLTAEAVTGVKPRILGVPGLDSLEVATALAPICQKLRAFGYISAWDCQNISEAMLYRENFSQRELMVIWPDFLAWDTTANATETVWATARALGLRAKIDQDTGWHKTLSNVGVNGVTGISASVFWDLQESGTDADLLNEAGVTTLIRKDGFRFWGNRCCSDDPLFLFENYTRTAQVIADTMAAGHMWAVDKPITATLIKDIVAGINAKFREMKTAGYIVDATCWFDESANDAATLKAGKLYIDYDYTPVPPLENLTLRQRITDKYLANLVSSVNSN” the “soluble on expression in E. coli” value was “not soluble”.
With “VRQLSQPLKRLVVAARQFGQGRSVRLPLGPETPSEMAEVYRAFNQMAEDIEQGGRERELMLAGVSHDLRTPLTRLRLSLELLPESEREMVEDMIRDIEDMDAILDQFLAFIRDGRDEPVEEGDLTDLVREVVAPFNQTREQVRMALQPVPAMPLRRVSMKRLLGNLIDNALNHGGGSVEVASYVAGESAAPYVVLSVLDRGQGIDPAEVDSIFNPFIRGDKARGGKGTGLGLAIVKRIAAQHGGSVELRNRDGGGLEARVCLPLGLLLPRGAA” the “soluble on expression in E. coli” value was “not soluble”.
In the case of “MGSDKIHHHHHHMQFGAKPLFENVSVKFGNGNRYGLIGANGCGKSTFMKILGNDLEPSAGQVMLEPNVRLGKLRQDQFAYEDFSVIDTVIMGHEELWAVKAERDRIYSLPEMSEADGMAVAELEVQFAEFDGYTAESRAGELLLGLGIPLEQHFGPMSAVAPGWKLRVLLAQALFSDPDVLLLDEPTNHLDINTIRWLEGVLTARNSTMIIISHDRHFLNSVCTHMADLDYGELRLFPGNYDEYMTAAEQARERLLSDNAKKKAQIAELQSFVSRFSANASKAKQATSRARQIDKIQLEEVKPSSRVSPFIRFEQYKKLHRQAVTVENISKGYDGKPLFKGLSLQVEAGERVAIIGPNGIGKTTLLRCLVGDLPVDGGEVKWTDSADVGYFAQDHADDFADDMSLFDWMAQWTQGGEQLVRGTLGRMLFSNDEIKKSVKVISGGEQGRMLFGRLILKRPNVLVMDEPTNHLDMESIEALNLALDNYPGTLIFVSHDREFVSSLATRIIELGENGVTDFSGSYDDYLRSQGVIV”, the “soluble on expression in E. coli” value is reported as “not soluble”.
For “MGFNNLVSLAALIEKVFPIRYTPAGIPVLDIILKHESWQEENGQQCLVQLEIPARILGRQAEEWQYRQGVYVHVEGFLAQKSRRSLMPMLRIQNIQEYKG”, the “soluble on expression in E. coli” value was “not soluble”.
With “AHHHHHHGSELFFITSNDGKVREAKKFLEPLGINVIKKPLEYPEIQADTLEDVVVFGLNWLKDKVDKPFIIEDSGLFIEALNGFPGVYSAYVYKTIGLDGILKLMEGIENRKAYFKSVIGFYDGEIHLFVGEVRGRISNEKRGLHGFGYDPIFVPDGFDKTFAEMSTEEKNSVSHRGKALKEFYRWMKENLKK” the “soluble on expression in E. coli” value was “soluble”.
With “MSLRTMLTQKFVVDSMLGKIARWLRIMGYDTLYSNDFEDWKILKIAETQKRIIITRDRGIYYRSLKRGLNCILLSPDSNIIQDLAFIALRSKIDLSVNINATRCPQCNSVLSKLSESMWLCPKCKKEYWKGRHWRTIEEIIIKANSELVKLETKNDSRGTGTDTGVKRRDRTVTNRNSEGHHHHHH” the “soluble on expression in E. coli” value was “soluble”.
With “MGHHHHHHSHMALAARLLPQFLHSRSLPCGAVRLRTPAVAEVRLPSATLCYFCRCRLGLGAALFPRSARALAASALPAQGSRWPVLSSPGLPAAFASFPACPQRSYSTEEKPQQHQKTKMIVLGFSNPINWVRTRIKAFLIWAYFDKEFSITEFSEGAKQAFAHVSKLLSQCKFDLLEELVAKEVLHALKEKVTSLPDNHKNALAANIDEIVFTSTGGISIYYDEKGRKFVNILMCFWYLTSANIPSETLRGASVFQVKLGNQNVETKQLLSASYEFQREFTQGVKPDWTIARIEHSKLLE” the “soluble on expression in E. coli” value was “not soluble”.
With “MQGSVTEFLKPRLVDIEQISTTHAKVTLEPLERGFGHTLGNALRRILLSSMPGCAVTEVEIEGVLHEYSTKEGVQEDILEILLNLKGLAVRVAEGKDEVFITLNKSGSGPVVAGDITHDGDVEIVNPEHVICHLTSDNAAIAMRIKVERGRGYVPASARIHTEEDERPIGRLLVDATFSPVDKIAYSVEAARVEQRTDLDKLVIDMETNGTLEPEEAIRRAATILAEQLDAFVDLRDVRVPEEKEEKPEFDPILLRPVDDLELTVRSANCLKAEAIHYIGDLVQRTEVELLKTPNLGKKSLTEIKDVLASRGLSLGMRLENWPPASIAED” the “soluble on expression in E. coli” value was “soluble”.
For “GHMEELNIDFDVFKKRIELLYSKYNEFEGSPNSLLFVLGSSNAENPYQKTTILHNWLLSYEFPATLIALVPGKVIIITSSAKAKHLQKAIDLFKDPESKITLELWQRNNKEPELNKKLFDDVIALINSAGKTVGIPEKDSYQGKFMTEWNPVWEAAVKENEFNVIDISLGLSKVWEVKDVNEQAFLSVSSKGSDKFMDLLSNEMVRAVDEELKITNAKLSDKIENKIDDVKFLKQLSPDLSALCPPNYKFNFDLLDWTYSPIIQSGKKFDLRVSARSTNDQLYGNGCILASCGIRYNNYCSNITRTFLIDPSEEMANNYDFLLTLQKEIVTNILKPGRTPKEVYESVIEYIEKTKPELVPNFTKNIGSLIGLEFRDSNFILNVKNDYRKIQRGDCFNISFGFNNLKDSQSANNYALQLADTVQIPLDETEPPRFLTNYTKAKSQISFYFNNEEEDNNKKKSSPATKV”, the “soluble on expression in E. coli” value was “soluble”.
